Reference: the supplement of paper PMC7125110
± gives the standard error. Fewer inactive variants are shown than the library holds.

B1: glmS ribozyme (parent)
chain: AUAAAAGCGCCAGAACUACAGAAAUGUAGUUGACGAGGAGGAGGUUUAUCGAAUUUUCGGCGGAUGCCUCCAAA

How the values were obtained:
Details in all cases: with glucosamine-6-phosphate
glucosamine-6-phosphate [1] = variants of: B1; test: self-cleavage kobs at 160 uM GlcN6P; higher = faster cleavage; RNA array
In short: (§1)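 Glucosamine-6-phosphate in HEPES/KCl/Mg(OAc)2 buffer, at 40 μM to 10 mM, was flowed over barcoded ribozyme variants transcribed in situ by E. coli RNA polymerase on sequenced MiSeq chips. Tracking was through a hybridised Cy3 probe at 37 °C. kobs, kcat and KM came from exponential decay fits and weighted Michaelis–Menten fits of normalised per-tile medians.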

glucosamine-6-phosphate [2] = variants of: B1; test: self-cleavage kobs at 10000 uM GlcN6P; higher = faster cleavage; RNA array
In short: as §1

glucosamine-6-phosphate [3] = variants of: B1; test: self-cleavage kobs at 640 uM GlcN6P; higher = faster cleavage; RNA array
In short: as §1

glucosamine-6-phosphate [4] = variants of: B1; test: self-cleavage kobs at 2500 uM GlcN6P; higher = faster cleavage; RNA array
In short: as §1

Variant | self-cleavage kobs at 160 uM GlcN6P (glucosamine-6-phosphate [1]) [s⁻¹] | self-cleavage kobs at 10000 uM GlcN6P (glucosamine-6-phosphate [2]) [s⁻¹] | self-cleavage kobs at 640 uM GlcN6P (glucosamine-6-phosphate [3]) [s⁻¹] | self-cleavage kobs at 2500 uM GlcN6P (glucosamine-6-phosphate [4]) [s⁻¹]
C16A A33G | < 1e-05 | < 1e-05 |  | 
A33C G41C G60A | < 1e-05 |  | < 1e-05 | < 1e-05
G43U A53C G62U | < 1e-05 |  |  | < 1e-05
A15G G51U G59A | < 1e-05 | < 1e-05 |  | < 1e-05
C58G U69C | 6.56e-05 ± 2e-05 |  | 0.000102 ± 3.1e-05 | 0.00011 ± 3.2e-05
C10U G29U U57C C67U U69G | 6.16e-05 ± 1.7e-05 |  | 8.17e-05 ± 1.9e-05 | 6.3e-05 ± 2e-05
A12C A39G C70U | 0.000758 ± 0.00028 |  |  | 
G38C U49G | < 1e-05 |  | < 1e-05 | < 1e-05
G32C U46A C50A A52U | < 1e-05 |  | < 1e-05 | < 1e-05
A6C C10A | < 1e-05 | < 1e-05 | < 1e-05 | < 1e-05
C10A A33C G40C C70U | < 1e-05 |  | < 1e-05 | 
G9A G37A A42U | < 1e-05 |  | < 1e-05 | 
G44U C50A C68G | < 1e-05 |  |  | < 1e-05
C50G C67G | 7.32e-05 ± 1.3e-05 |  | 5e-05 ± 7.7e-06 | 
A6C A53U G63A | < 1e-05 |  | < 1e-05 | < 1e-05
G13U A36G G43A G66C C70A | < 1e-05 |  | < 1e-05 | < 1e-05
A36G U45C | < 1e-05 |  | < 1e-05 | < 1e-05
A15G G21C A39G G40C A48C C58U | < 1e-05 |  |  | 
G60C C61G | < 1e-05 |  | < 1e-05 | < 1e-05
C8A G9U G32A G51A | < 1e-05 |  |  | 
G38A G51C | < 1e-05 |  |  | 
G7A G41A C70G | < 1e-05 |  |  | 
A52G C67U C71G | 4.58e-05 ± 2.3e-05 |  | 7.65e-05 ± 1.9e-05 | 0.000162 ± 5.9e-05
G29C U69G | 3.65e-05 ± 9.9e-06 |  | 9.83e-05 ± 1.7e-05 | 4.13e-05 ± 1.1e-05
G7A C10A C16G G29A A42U G51U C61U | < 1e-05 | < 1e-05 |  | < 1e-05
G7U A12U U56G | < 1e-05 |  | < 1e-05 | 
